Consider 1 molecule from paper PMC5573662 (Bioorganic & medicinal chemistry, 2017).

Square brackets hold non-standard residues; d marks the D form. Ends that are not written are not given here. His(π-(CH2)8Ph) = N[C@@H](Cc1cncn1CCCCCCCCc1ccccc1)C(=O)O; pT = C[C@@H](OP(=O)(O)O)[C@H](N)C(=O)O

The test has as its target full-length polo-like kinase 1 (Plk1) (UniProt P53350 1-603). Put plainly: ELISA. (ELISA stands for enzyme-linked immunosorbent assay.)

Sequence of full-length polo-like kinase 1 (Plk1) (P53350 whole entry): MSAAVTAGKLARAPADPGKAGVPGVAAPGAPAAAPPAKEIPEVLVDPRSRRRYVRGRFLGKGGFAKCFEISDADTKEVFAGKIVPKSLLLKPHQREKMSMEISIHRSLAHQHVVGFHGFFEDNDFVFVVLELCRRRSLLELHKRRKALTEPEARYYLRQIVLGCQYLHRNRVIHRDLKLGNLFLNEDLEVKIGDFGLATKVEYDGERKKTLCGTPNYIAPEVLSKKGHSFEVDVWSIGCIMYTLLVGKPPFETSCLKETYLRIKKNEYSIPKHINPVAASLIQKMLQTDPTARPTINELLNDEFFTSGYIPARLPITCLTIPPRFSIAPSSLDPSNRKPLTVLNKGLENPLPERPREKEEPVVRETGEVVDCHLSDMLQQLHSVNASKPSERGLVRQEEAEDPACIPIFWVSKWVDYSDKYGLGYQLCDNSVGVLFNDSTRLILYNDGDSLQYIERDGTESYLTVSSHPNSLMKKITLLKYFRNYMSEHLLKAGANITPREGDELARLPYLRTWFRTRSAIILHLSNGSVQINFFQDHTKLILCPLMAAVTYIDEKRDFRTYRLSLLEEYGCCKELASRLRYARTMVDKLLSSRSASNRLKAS

For PL[His(π-(CH2)8Ph)]S[pT] [PLH*SpT (2a)], the IC50 worked out at 181 nM.

As usually defined, the IC50 is the midpoint of a concentration-inhibition curve.
